Literature values in patent US7531621B1, “PTH2 receptor selective compounds” (Societe de Conseils de Recherches et d'Applications …, priority 1999, dated 2009).

What was measured:
PTH/PTHrP receptor = biological target: T1, PTH/PTHrP receptor (Homo sapiens, UniProt Q03431); conditions: result in words, background
T1 sequence (Q03431 27-593): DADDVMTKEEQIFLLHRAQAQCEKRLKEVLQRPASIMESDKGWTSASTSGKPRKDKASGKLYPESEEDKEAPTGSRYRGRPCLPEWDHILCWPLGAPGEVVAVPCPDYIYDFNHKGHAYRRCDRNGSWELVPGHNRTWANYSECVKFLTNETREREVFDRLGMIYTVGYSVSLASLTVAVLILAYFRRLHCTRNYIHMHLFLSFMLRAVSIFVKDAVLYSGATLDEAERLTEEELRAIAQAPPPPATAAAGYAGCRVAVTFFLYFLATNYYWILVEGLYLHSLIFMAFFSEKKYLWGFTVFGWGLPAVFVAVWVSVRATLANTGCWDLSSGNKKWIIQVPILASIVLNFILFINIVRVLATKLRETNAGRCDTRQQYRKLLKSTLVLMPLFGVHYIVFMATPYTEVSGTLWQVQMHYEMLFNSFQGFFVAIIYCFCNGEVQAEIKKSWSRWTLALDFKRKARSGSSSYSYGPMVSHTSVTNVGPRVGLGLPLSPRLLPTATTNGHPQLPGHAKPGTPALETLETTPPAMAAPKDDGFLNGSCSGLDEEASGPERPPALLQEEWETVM

PTH2 receptor = PTH2 receptor (Homo sapiens, UniProt P49190); conditions: result in words, background
Sequence of PTH2 receptor (P49190 25-550): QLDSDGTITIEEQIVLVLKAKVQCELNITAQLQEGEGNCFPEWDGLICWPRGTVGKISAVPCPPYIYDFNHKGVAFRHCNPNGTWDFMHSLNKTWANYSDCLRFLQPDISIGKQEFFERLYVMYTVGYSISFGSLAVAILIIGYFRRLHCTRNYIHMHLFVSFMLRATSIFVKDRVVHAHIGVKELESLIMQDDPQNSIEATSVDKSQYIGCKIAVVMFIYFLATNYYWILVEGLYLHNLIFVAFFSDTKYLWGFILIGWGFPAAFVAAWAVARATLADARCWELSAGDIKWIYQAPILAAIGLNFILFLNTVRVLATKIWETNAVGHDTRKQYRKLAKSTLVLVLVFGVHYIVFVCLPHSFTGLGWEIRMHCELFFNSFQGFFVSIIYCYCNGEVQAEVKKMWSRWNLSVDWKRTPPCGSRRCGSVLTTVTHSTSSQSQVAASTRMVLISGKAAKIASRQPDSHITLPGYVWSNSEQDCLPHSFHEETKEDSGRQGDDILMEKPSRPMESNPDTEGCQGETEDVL

Row | Substance | binding and activation of the PTH/PTHrP receptor (PTH/PTHrP receptor) | activation of the PTH2 receptor (PTH2 receptor)
1 | Ile^5-PTHrP-(1-34) NH2 | binds and activates both receptors | acts as a PTH-2 receptor agonist
2 | PTH-(1-34) | binds and is activated by both | selectively activated
3 | PTHrP (7-34) | – | weakly activate
